Experimental data taken from patent US20170224837A1.
Like-named read-outs stand apart in the source and are kept apart here. Each block holds one molecule with its values, some of them ahead of it.

Columns and labels:
[1] = target: human Trop-2 (EGP-1, TACSTD2) on human tumor cells or tissues (human) (UniProt P09758); test: cell binding on NCI-N87 cells, anti-mouse-HRP, luminescence
[2] = target: human Trop-2 (EGP-1, TACSTD2) on human tumor cells or tissues (human) (UniProt P09758); test: cell-based or functional assay
[3] = target: recombinant human neonatal receptor (FcRn) (human) (UniProt P55899); test: SPR (BIACORE), FcRn chip
[4] = target: rhTrop-2/TACSTD2 (Sino Biological, Inc.), recombinant human Trop-2 immobilized on CM5 chip (human) (UniProt P09758); test: SPR (BIACORE), Trop-2 chip
[5] = target: human Trop-2 (EGP-1, TACSTD2) on human tumor cells or tissues (human) (UniProt P09758); test: cell binding assay; cell line not stated
[6] = target: recombinant human neonatal receptor (FcRn) (human) (UniProt P55899); test: SPR (BIACORE), low-density FcRn chip, three runs at 400 to 25 nM
[7] = target: rhTrop-2/TACSTD2 (Sino Biological, Inc.), recombinant human Trop-2 immobilized on CM5 chip (human) (UniProt P09758); test: SPR (BIACORE), low-density recombinant human Trop-2 chip, three runs
[8] = target: human Trop-2 (EGP-1, TACSTD2) on human tumor cells or tissues (human) (UniProt P09758); test: cell-based or functional assay; remark: listed apart in the source
[9] = target: Recombinant human Trop-2 with a His-tag (Sino Biological, Inc., Cat#10428-H09H) (human) (UniProt P09758); test: ELISA on Ni-NTA strips coated with His-tagged recombinant human Trop-2
Chain of Recombinant human Trop-2 with a His-tag (Sino Biological, Inc., Cat#10428-H09H) (human) (P09758 27-274 limits assumed): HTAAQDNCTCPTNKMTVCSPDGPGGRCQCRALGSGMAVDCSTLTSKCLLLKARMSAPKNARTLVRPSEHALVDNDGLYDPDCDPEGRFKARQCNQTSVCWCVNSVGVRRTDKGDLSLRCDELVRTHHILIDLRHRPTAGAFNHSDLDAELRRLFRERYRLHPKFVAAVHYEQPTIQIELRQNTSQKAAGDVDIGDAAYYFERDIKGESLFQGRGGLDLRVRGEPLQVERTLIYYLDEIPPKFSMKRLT

Chain of recombinant human neonatal receptor (FcRn) (human) (P55899 24-297 limits assumed): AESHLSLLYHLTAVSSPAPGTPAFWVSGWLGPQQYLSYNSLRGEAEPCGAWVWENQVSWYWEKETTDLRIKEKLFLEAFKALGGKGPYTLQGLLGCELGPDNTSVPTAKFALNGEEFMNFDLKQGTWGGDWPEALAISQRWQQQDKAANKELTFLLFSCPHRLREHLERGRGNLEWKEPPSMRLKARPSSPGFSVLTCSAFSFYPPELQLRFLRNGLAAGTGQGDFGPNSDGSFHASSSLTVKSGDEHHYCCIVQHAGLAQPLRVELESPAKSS
Chain of rhTrop-2/TACSTD2 (Sino Biological, Inc.), recombinant human Trop-2 immobilized on CM5 chip (human) (P09758 27-274 limits assumed): as the sequence (P09758 27-274 limits assumed) above
Chain of human Trop-2 (EGP-1, TACSTD2) on human tumor cells or tissues (human) (P09758 27-323): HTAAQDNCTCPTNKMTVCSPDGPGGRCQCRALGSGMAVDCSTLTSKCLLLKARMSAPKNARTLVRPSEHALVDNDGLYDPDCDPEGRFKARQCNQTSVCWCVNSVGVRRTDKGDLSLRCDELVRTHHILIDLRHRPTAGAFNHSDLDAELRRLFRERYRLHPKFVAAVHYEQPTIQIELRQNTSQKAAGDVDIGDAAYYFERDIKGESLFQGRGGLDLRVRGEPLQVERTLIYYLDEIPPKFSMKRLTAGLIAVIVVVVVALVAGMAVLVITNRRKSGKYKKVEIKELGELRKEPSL

Molecule: 162-46.2 (murine monoclonal antibody against human Trop-2, hybridoma ATCC HB-187)
BMax (relative luminescent units) [1]: 8470
Kd [1]: 520 pM
reduction of maximum binding (Bmax) against RS7 [1]: 25%

B1: humanized RS7 (hRS7) anti-Trop-2 antibody, hRS7 IgG (antibody, INN chains, looked up, V domains shown, part only)
VH: QVQLQQSGSELKKPGASVKVSCKASGYTFTNYGMNWVKQAPGQGLKWMGWINTYTGEPTYTDDFKGRFAFSLDTSVSTAYLQISSLKADDTAVYFCARGGFGSSYWYFDVWGQGSLVTVSS
VL: DIQLTQSPSSLSASVGDRVSITCKASQDVSIAVAWYQQKPGKAPKLLIYSASYRYTGVPDRFSGSGSGTDFTLTISSLQPEDFAVYYCQQHYITPLTFGAGTKVEIK
ADCC, specific lysis of BxPC-3 by PBMC (E:T 100:1, 33.3 nM) [8]: 8.5%
ADCC, specific lysis of MDA-MB-468 (4-h LDH release, E:T 50:1, 33.3 nM) [8]: 29.8%
Kd [6]: 92400 pM
Kd [7]: 510 pM
Kd [9]: 300 pM

B2: hA20-SN-38 (anti-CD20 hA20 / veltuzumab conjugated to SN-38), non-binding control conjugate (antibody, INN chains, looked up, V domains shown, part only)
VH: QVQLQQSGAEVKKPGSSVKVSCKASGYTFTSYNMHWVKQAPGQGLEWIGAIYPGMGDTSYNQKFKGKATLTADESTNTAYMELSSLRSEDTAFYYCARSTYYGGDWYFDVWGQGTTVTVSS
VL: DIQLTQSPSSLSASVGDRVTMTCRASSSVSYIHWFQQKPGKAPKPWIYATSNLASGVPVRFSGSGSGTDYTFTISSLQPEDIATYYCQQWTSNPPTFGGGTKLEIKR
modifications: SN-38 via CL2A linker
γH2AX induction in BxPC-3, Mean Fluorescence Intensity [8]: 2250 MFI
γH2AX induction in BxPC-3, Percent Positive [8]: 12.7%

Results, then the molecule that gave them:

BMax (relative luminescent units) [1]: 6020
Kd [1]: 490 pM
reduction of maximum binding (Bmax) against RS7 [1]: 50%
Molecule: MAB650 (murine monoclonal antibody against human Trop-2, R&D Systems)

ADCC, specific lysis of MDA-MB-468 (4-h LDH release, E:T 50:1, 33.3 nM) [2]: 8.6%
Median fluorescence intensity of anti-rH2AX-AF488 staining (dsDNA breaks), HCC1806 (Trop-2+) [2]: 546 MFI
decrease of ADCC relative to hRS7 (MDA-MB-468, NIH:OVCAR-3, BxPC-3) [2]: > 60%
γH2AX induction in BxPC-3, Mean Fluorescence Intensity [2]: 5350 MFI
γH2AX induction in BxPC-3, Percent Positive [2]: 69%
fold lower average binding level than hRS7 [3]: 2 fold
fold improvement of KD against naked hRS7 [4]: 2 fold
Kd [5]: 1200 pM
Kd [6]: 192000 pM
Kd [7]: 260 pM
Molecule: Sacituzumab govitecan (IMMU-132, also known as hRS7-CL2A-SN-38) (antibody)
